Changes are numbered by the printed parent chain. Numbers in names are those of the source.
B1: AlrTt (Caldanaerobacter subterraneus subsp. tengcongensis MB4; Q360Y) (protein)
chain: MKFDGVRPTRVEVYLDAITHNFREIKKIVGKNVKIMAVIKGDAYGHGASYVAKFLEKEGVDYFGVATTEEALELREKGIKTPILIFGYTPPTQLRQIVKHDLTQTVYDIKYAKELEKESLKQNKRAKVHIKIDTGLGRIGYIDFDLAQKEILEMANMRGLILEGIYSHFAAASEDDRDYCKEQFDKFMNLISSLEKKRLKIPLKHIANAAAILNLNYSHLDMVRPGIILFGAYPSKRVERKVELRETLRFTTRVVHLKDVPAGFFIGYGKSFVTKRKSVIATIPVGYADGLDRRLSNNYKLLLKGKYVPIVGRVCMDQCMIDVTDVEGVEIGDEVVIIGTQNNETVSVESMADKIETIPYEVFSRISRRVPRVYFYDGIKIGEVNYLK
B2: AlrTt (Caldanaerobacter subterraneus subsp. tengcongensis MB4; Q360Y/S173D) (protein)
chain: B1 chain with S173D

Legend:
[1] = biological target: Alanine racemase AlrTt (MBAlr1) from Thermoanaerobacter tengcongensis MB4, wild type (Thermoanaerobacter tengcongensis MB4) (UniProt Q8RAK6); test: crystal structure; AlrTt (10 mg/mL) incubated with L-Ala and PLP at 1:1.5:1.5 molar ratio, hanging drop, 22% PEG 4000, 0.1 M Bis-Tris pH 7.0, 289 K; 2.7 Å; homodimer in one asymmetric unit
[2] = biological target: T1, AlrTt (Caldanaerobacter subterraneus, UniProt Q8RAK6); test: PLP content by absorption at […] nm; assay type: binding; settings: active site, internal aldimine with Lys40 (covalent); in the crystal only the phosphate group of PLP was seen
T1 construct: gene alr1; full length, pET-28a, N- and C-terminal 6xHis tags, E. coli BL21(DE3); 388 residues; homodimer in crystal, monomer in size exclusion

[3] = biological target: T1, AlrTt; test: X-ray crystal structure, […] Å; assay type: binding; settings: co-crystallized with L-Ala and PLP, pH 7.0; active site
[4] = substrate: C[C@@H](N)C(=O)O; test: purified protein; settings: D-Ala to L-Ala; conditions of the kinetic assay not given
[5] = substrate: C[C@H](N)C(=O)O; test: purified protein; settings: L-Ala to D-Ala; conditions of the kinetic assay not given

T1 sequence (Q8RAK6 whole entry): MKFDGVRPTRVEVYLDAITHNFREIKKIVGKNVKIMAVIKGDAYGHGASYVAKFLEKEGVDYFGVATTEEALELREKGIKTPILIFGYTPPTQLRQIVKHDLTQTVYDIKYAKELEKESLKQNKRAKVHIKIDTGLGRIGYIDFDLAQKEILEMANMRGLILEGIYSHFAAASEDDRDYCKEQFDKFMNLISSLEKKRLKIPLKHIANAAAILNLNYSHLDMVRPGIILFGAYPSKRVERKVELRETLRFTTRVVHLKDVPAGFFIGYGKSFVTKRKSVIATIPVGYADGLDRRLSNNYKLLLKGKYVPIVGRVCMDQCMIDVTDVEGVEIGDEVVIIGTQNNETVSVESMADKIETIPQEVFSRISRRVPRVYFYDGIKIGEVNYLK

Row | Molecule | Km [4] | kcat [4] | kcat/Km [4] | Km [5] | kcat [5] | kcat/Km [5] | also measured
1 | Alanine racemase AlrTt (MBAlr1) from Thermoanaerobacter tengcongensis MB4, wild type (from UniProt Q8RAK6 1-388) (enzyme) |  |  |  |  |  |  | stoichiometry N [1]: 2
2 | Cc1ncc(COP(=O)(O)O)c(C=O)c1O [PLP] |  |  |  |  |  |  | PLP content [2]: 1.44 ± 0.01 mol PLP per mol enzyme
3 | C[C@H](N)C(=O)O [L-Ala] |  |  |  |  |  |  | X-ray crystal structure, 2.7 Å [3]: One L-Ala molecule is positioned in the active site pocket by hydrogen bonds
4 | B1 | 52.03 ± 5.41 mM | 251 s⁻¹ | 4830 M⁻¹ s⁻¹ | 87.81 ± 8.72 mM | 431 s⁻¹ | 4910 M⁻¹ s⁻¹ | 
5 | B2 | 58.48 ± 7.29 mM | 133 s⁻¹ | 2270 M⁻¹ s⁻¹ | 83.10 ± 8.78 mM | 246 s⁻¹ | 2970 M⁻¹ s⁻¹ | 

Reference: PMC4517790 (PLoS ONE, 2015)
